# Results: patent US20250066503A1, “CELL INJURY INDUCING THERAPEUTIC DRUG FOR USE IN CANCER THERAPY” (CHUGAI SEIYAKU KABUSHIKI KAISHA, priority 2016, published 2025)
# Positions count from the first letter of the chain named.
# B1: TR01H015-E2702GsKsc/GCH019-E2704sEpsc/L0000-k0 (bispecific antibody, human IgG4 S228P, kappa, N297A)
# heavy 1: QVQLVESGGGLVQPGRSLRLSCAASGFTFSNAWMHWVRQAPGKGLEWVAQIKGKSNNYATYYAESVKGRFTISRADSKNSIYLQMNSLKTEDTAVYYCRYVHYSASYGVDIWGQGTTVTVSSASTKGPSVFPLAPCSRSTSESTAALGCLVKDYFPEPVTVSWNSGALTSGVHTFPAVLQSSGLYSLSSVVTVPSSSLGTKTYTCNVDHKPSNTKVDKRVESKYGPPCPPCPAPEFRGGPKVFLFPPKPKDTLMISRTPEVTCVVVDVSQEDPEVQFNWYVDGVEVHNAKTKPREEQFASTYRVVSVLTVLHQDWLNGKEYKCKVSNKGLPSSIEKTISKAKGQPREPQVYTLPPSQKEMTKNQVSLTCLVKGFYPSDIAVEWESNGQPENNYKTTPPVLDSDGSFFLYSKLTVDKSRWQEGNVFSCSVMHEALHNRYTQKSLSLSP
# heavy 2: QVQLVQSGAEVKKPGASVTVSCKASGYTFTDYEMHWIRQPPGEGLEWIGAIDGKTPDTAYEQKFKGRVTLTADKSTSTAYMELSSLTSEDTAVYYCTRFYSYTYWGQGTLVTVSSASTKGPSVFPLAPCSRSTSESTAALGCLVKDYFPEPVTVSWNSGALTSGVHTFPAVLQSSGLYSLSSVVTVPSSSLGTQTYTCNVDHKPSNTKVDKRVESKYGPPCPPCPAPEFRGGPKVFLFPPKPKDTLMISRTPEVTCVVVDVSQEDPEVQFNWYVDGVEVHNAKTKPREEQFASTYRVVSVLTVLHQDWLNGKEYKCKVSNKGLPSSIEKTISKAKGQPREPQVYTLPPSQEEMTKNQVSLTCLVKGFYPSDIAVEWESNGQPENNYKTTPPVLDSDGSFFLYSKLTVDKSRWQEGNVFSCSVMHEALHNHYTQESLSLSP
# light: DIVMTQSPLSLPVTPGEPASISCRSSQSLVHSNRNTYLHWYQQKPGQAPRLLIYKVSNRFSGVPDRFSGSGSGTDFTLKISRVEAEDVGVYYCGQGTQVPYTFGQGTKLEIKRTVAAPSVFIFPPSDEQLKSGTASVVCLLNNFYPREAKVQWKVDNALQSGNSQESVTEQDSKDSTYSLSSTLTLSKADYEKHKVYACEVTHQGLSSPVTKSFNRGEC
# notes: common L chain format
# B2: GCH060-G1dh/none-Hi-Kn010G3/L0222-k0 (antibody, V domains shown)
# VH: QVQLVQSGAEVKKPGASVTVSCKASGYTFEDYEMHWIRQPPGEGLEWIGAIDGETPDTAYSQKFEGRVTLTADKSTSTAYMELSSLTEEDTAVYYCTRFYSYTYWGQGTLVTVSS
# VL: DIVMTQSPLSLPVTPGEPASISCRSSQSPVHSNRNTYIQWYQQKPGQAPRLLIYKVSNRFSGVPDRFSGSGSGTDFTLKISRVEAEDVGVYYCYQGTQVPYTFGQGTKLEIKR
# notes: one-arm
# B3: H0610-G1dh/none-Hi-Kn010G3/L0000vk1-k0 (antibody, V domains shown)
# VH: B2 VH with T19K, E30T, E43Q, E54K, E65K, E88S
# VL: DIQMTQSPSSLSASVGDRVTITCRSSQSLVHSNRNTYLHWYQQKPGKAPKLLIYKVSNRFSGVPSRFSGSGSGTDFTFTISSLQPEDIATYYCGQGTQVPYTFGQGTKVEIK
# notes: one-arm
# B4: H0610-G1dh/none-Hi-Kn010G3/L0211-k0 (antibody, V domains shown)
# VH: B2 VH with T19K, E30T, E43Q, E54K, E65K, E88S
# VL: B2 VL with S28P, I38L, Q39H
# notes: one-arm
# B5: GCH094-G1dh/none-Hi-Kn010G3/L0000-k0 (antibody, V domains shown)
# VH: B2 VH with E30T, I37V, P40A, I48M, Q62E, E65K, E88S
# VL: B2 VL with P29L, I38L, Q39H, Y94G
# notes: one-arm
# B6: GCH073-G1dh/none-Hi-Kn010G3/L0011-k0 (antibody, V domains shown)
# VH: B2 VH with E30T, E54P, E88S
# VL: B2 VL with S28P, P29L, I38L, Q39H, Y94G
# notes: one-arm
# B7: H0610-G1dh/none-Hi-Kn010G3/L0208-k0 (antibody, V domains shown)
# VH: B2 VH with T19K, E30T, E43Q, E54K, E65K, E88S
# VL: B2 VL with I38L, Q39H, S61W
# notes: one-arm
# B8: GCH100-G1dh/none-Hi-Kn010G3/L0011-k0 (antibody, V domains shown)
# VH: B2 VH with E30T, I37V, P40A, I48M, E54Y, Q62E, E65K, E88S
# VL: B2 VL with S28P, P29L, I38L, Q39H, Y94G
# notes: one-arm
# B9: GCH100-G1dh/none-Hi-Kn010G3/L0000-k0 (antibody, V domains shown)
# VH: B2 VH with E30T, I37V, P40A, I48M, E54Y, Q62E, E65K, E88S
# VL: B2 VL with P29L, I38L, Q39H, Y94G
# notes: one-arm
# B10: GCH098-G1dh/none-Hi-Kn010G3/L0011-k0 (antibody, V domains shown)
# VH: B2 VH with E30T, I37V, P40A, I48M, E54P, Q62E, E65K, E88S
# VL: B2 VL with S28P, P29L, I38L, Q39H, Y94G
# notes: one-arm
# B11: GCH099-G1dh/none-Hi-Kn010G3/L0000-k0 (antibody, V domains shown)
# VH: B2 VH with E30T, I37V, P40A, I48M, E54W, Q62E, E65K, E88S
# VL: B2 VL with P29L, I38L, Q39H, Y94G
# notes: one-arm
# B12: GCH073-G1dh/none-Hi-Kn010G3/L0201-k0 (antibody, V domains shown)
# VH: B2 VH with E30T, E54P, E88S
# VL: B2 VL with S28P, I38L, Q39H, Y94G
# notes: one-arm
# B13: GCH099-G1dh/none-Hi-Kn010G3/L0011-k0 (antibody, V domains shown)
# VH: B2 VH with E30T, I37V, P40A, I48M, E54W, Q62E, E65K, E88S
# VL: B2 VL with S28P, P29L, I38L, Q39H, Y94G
# notes: one-arm
# B14: GCH099-G1dh/none-Hi-Kn010G3/L0201-k0 (antibody, V domains shown)
# VH: B2 VH with E30T, I37V, P40A, I48M, E54W, Q62E, E65K, E88S
# VL: B2 VL with S28P, I38L, Q39H, Y94G
# notes: one-arm
# B15: GCH067-G1dh/none-Hi-Kn010G3/L0000-k0 (antibody, V domains shown)
# VH: B2 VH with E30T, E54Y, Q62E, E65K, E88S
# VL: B2 VL with P29L, I38L, Q39H, Y94G
# notes: one-arm
# B16: GCH068-G1dh/none-Hi-Kn010G3/L0000-k0 (antibody, V domains shown)
# VH: B2 VH with E30T, E54K, Q62E, E65K, E88S
# VL: B2 VL with P29L, I38L, Q39H, Y94G
# notes: one-arm
# B17: GCH062-G1dh/none-Hi-Kn010G3/L0000-k0 (antibody, V domains shown)
# VH: B2 VH with T19K, E30T, E43Q, I48M, E54K, E65K, E88S
# VL: B2 VL with P29L, I38L, Q39H, Y94G
# notes: one-arm
# B18: H0610-G1dh/none-Hi-Kn010G3/L0204-k0 (antibody, V domains shown)
# VH: B2 VH with T19K, E30T, E43Q, E54K, E65K, E88S
# VL: B2 VL with I38L, Q39H, S61R, Y94G
# notes: one-arm
# B19: H0610-G1dh/none-Hi-Kn010G3/L0212-k0 (antibody, V domains shown)
# VH: B2 VH with T19K, E30T, E43Q, E54K, E65K, E88S
# VL: B2 VL with S25P, I38L, Q39H
# notes: one-arm
# B20: GCH073-G1dh/none-Hi-Kn010G3/L0000-k0 (antibody, V domains shown)
# VH: B2 VH with E30T, E54P, E88S
# VL: B2 VL with P29L, I38L, Q39H, Y94G
# notes: one-arm
# B21: GCH066-G1dh/none-Hi-Kn010G3/L0000-k0 (antibody, V domains shown)
# VH: B2 VH with E30T, E54W, Q62E, E65K, E88S
# VL: B2 VL with P29L, I38L, Q39H, Y94G
# notes: one-arm
# B22: H0610-G1dh/none-Hi-Kn010G3/L0222-k0 (antibody, V domains shown)
# VH: B2 VH with T19K, E30T, E43Q, E54K, E65K, E88S
# VL: B2 VL
# notes: one-arm
# B23: H0610-G1dh/none-Hi-Kn010G3/L0203-k0 (antibody, V domains shown)
# VH: B2 VH with T19K, E30T, E43Q, E54K, E65K, E88S
# VL: B2 VL with Q39H, Y94G
# notes: one-arm
# B24: GCH098-G1dh/none-Hi-Kn010G3/L0000-k0 (antibody, V domains shown)
# VH: B2 VH with E30T, I37V, P40A, I48M, E54P, Q62E, E65K, E88S
# VL: B2 VL with P29L, I38L, Q39H, Y94G
# notes: one-arm
# B25: H0610-G1dh/none-Hi-Kn010G3/L0011-k0 (antibody, V domains shown)
# VH: B2 VH with T19K, E30T, E43Q, E54K, E65K, E88S
# VL: B2 VL with S28P, P29L, I38L, Q39H, Y94G
# notes: one-arm
# B26: H0610-G1dh/none-Hi-Kn010G3/L0209-k0 (antibody, V domains shown)
# VH: B2 VH with T19K, E30T, E43Q, E54K, E65K, E88S
# VL: B2 VL with Q39H
# notes: one-arm
# B27: H0610-G1dh/none-Hi-Kn010G3/L0201-k0 (antibody, V domains shown)
# VH: B2 VH with T19K, E30T, E43Q, E54K, E65K, E88S
# VL: B2 VL with S28P, I38L, Q39H, Y94G
# notes: one-arm
# B28: GCH094-G1dh/none-Hi-Kn010G3/L0201-k0 (antibody, V domains shown)
# VH: B2 VH with E30T, I37V, P40A, I48M, Q62E, E65K, E88S
# VL: B2 VL with S28P, I38L, Q39H, Y94G
# notes: one-arm
# B29: GCH100-G1dh/none-Hi-Kn010G3/L0201-k0 (antibody, V domains shown)
# VH: B2 VH with E30T, I37V, P40A, I48M, E54Y, Q62E, E65K, E88S
# VL: B2 VL with S28P, I38L, Q39H, Y94G
# notes: one-arm
# B30: H0610-G1dh/none-Hi-Kn010G3/L0206-k0 (antibody, V domains shown)
# VH: B2 VH with T19K, E30T, E43Q, E54K, E65K, E88S
# VL: B2 VL with I38L, Q39H
# notes: one-arm
# B31: GCH064-G1dh/none-Hi-Kn010G3/L0000-k0 (antibody, V domains shown)
# VH: B2 VH with T19K, E30T, E43Q, E54K, E65K, T87R, E88S
# VL: B2 VL with P29L, I38L, Q39H, Y94G
# notes: one-arm
# B32: GCH061-G1dh/none-Hi-Kn010G3/L0000-k0 (antibody, V domains shown)
# VH: B2 VH with T19K, E30T, I37V, P40A, E43Q, E54K, E65K, E88S
# VL: B2 VL with P29L, I38L, Q39H, Y94G
# notes: one-arm
# B33: GCH065-G1dh/none-Hi-Kn010G3/L0000-k0 (antibody, V domains shown)
# VH: B2 VH with E30T, E54P, Q62E, E65K, E88S
# VL: B2 VL with P29L, I38L, Q39H, Y94G
# notes: one-arm
# B34: GCH065-G1dh/none-Hi-Kn010G3/L0201-k0 (antibody, V domains shown)
# VH: B2 VH with E30T, E54P, Q62E, E65K, E88S
# VL: B2 VL with S28P, I38L, Q39H, Y94G
# notes: one-arm
# B35: GCH098-G1dh/none-Hi-Kn010G3/L0201-k0 (antibody, V domains shown)
# VH: B2 VH with E30T, I37V, P40A, I48M, E54P, Q62E, E65K, E88S
# VL: B2 VL with S28P, I38L, Q39H, Y94G
# notes: one-arm
# Biological target: T1, soluble human CD3 epsilon chain (human, UniProt P07766 23-126)
# T1 construct: also called CD3ε
# Assay: SPR
# T1 sequence (P07766 23-126 limits assumed): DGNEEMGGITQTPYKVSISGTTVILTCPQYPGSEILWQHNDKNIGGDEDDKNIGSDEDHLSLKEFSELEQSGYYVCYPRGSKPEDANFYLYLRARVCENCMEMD
row,Kd,Binder
1,29.6 nM,B1

# Biological target: T2, human GPC3 (human, UniProt P51654 25-563)
# T2 construct: range 25-563; soluble analyte; also called soluble human GPC3; glypican 3
# Assay: SPR
# T2 sequence (P51654 25-563 limits assumed): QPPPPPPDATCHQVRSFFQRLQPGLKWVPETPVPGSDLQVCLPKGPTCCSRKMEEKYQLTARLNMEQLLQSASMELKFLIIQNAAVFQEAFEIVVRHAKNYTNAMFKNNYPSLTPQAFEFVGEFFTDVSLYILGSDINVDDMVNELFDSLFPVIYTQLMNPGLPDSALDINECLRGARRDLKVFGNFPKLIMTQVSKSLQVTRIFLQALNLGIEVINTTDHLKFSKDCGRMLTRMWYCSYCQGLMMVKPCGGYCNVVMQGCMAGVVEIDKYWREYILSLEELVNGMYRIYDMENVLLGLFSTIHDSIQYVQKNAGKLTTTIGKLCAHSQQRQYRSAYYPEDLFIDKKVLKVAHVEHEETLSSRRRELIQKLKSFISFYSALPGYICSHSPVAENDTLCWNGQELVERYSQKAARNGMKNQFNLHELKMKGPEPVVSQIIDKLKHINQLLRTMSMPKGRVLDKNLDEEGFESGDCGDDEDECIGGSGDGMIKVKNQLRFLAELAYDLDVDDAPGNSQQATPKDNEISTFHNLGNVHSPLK
row,Kd,Binder
1,1.64 nM,B1
2,0.000642 nM,B2
3,2.16 nM,B3
4,0.647 nM,B4
5,5.89 nM,B5
6,0.91 nM,B6
7,0.53 nM,B7
8,3.81 nM,B8
9,5.39 nM,B9
10,0.802 nM,B10
11,4.24 nM,B11
12,0.035 nM,B12
13,2.78 nM,B13
14,1.29 nM,B14
15,5.24 nM,B15
16,6.23 nM,B16
17,3.73 nM,B17
18,0.727 nM,B18

row,Kd,Binder
1,0.994 nM,B19
2,2 nM,B20
3,4.29 nM,B21
4,0.00014 nM,B22
5,2.11 nM,B23
6,1.77 nM,B24
7,2.76 nM,B25
8,1.12 nM,B26
9,1.13 nM,B27
10,1.17 nM,B28
11,1.37 nM,B29
12,0.865 nM,B30
13,4.14 nM,B31
14,5.13 nM,B32
15,1.41 nM,B33
16,0.0774 nM,B34
17,0.111 nM,B35
